From patent US20120283317A1 (University of California, published 2012)
Positions count from the first letter of the chain named. Numbers in names are those of the source.

Assays:
[1] = molecular target: the molecule itself; assay: blue-native gel, PNPASE immunoblot (self-assembly)
Procedure: Listed are the in vitro effects of mutations on 3′ polymerase and RNA degrading activities as reported by Portnoy et al. (2008) RNA 14: 297-309. […] Radiolabeled RNase P RNA was incubated with isolated yeast mitochondria expressing an empty vector or the listed PNPASE constructs. […] A PORIN immunoblot confirms the co-localization of PNPASE WT and mutants in yeast mitochondria. The assembly state of WT and point mutant PNPASE was determined by solubilization with 1% digitonin and separation on a 6-16% BN gel, followed by PNPASE immunoblot. FIG. 11B (upper) show gels of WT and S484A PNPASE purified from yeast mitochondria using immunoprecipitation. FIG. 11B (lower) show gels of WT or S484A mutant PNPASE was incubated with radiolabeled RNase P RNA for 10 min at 25° C. to assess degradation activity. The asterisk marks degradation products. FIG. 11 C (left) is a gel showing the stability of RNase P RNA imported into mitochondria.
The assembly state of PNPASE was also investigated. […] Soluble proteins were separated on a 6-16% BN gel and PNPASE was detected by immunoblot. […] The PNPASE-HisPC were solubilized with 1% digitonin (Dig) or 0.5% dodecylmaltoside (DDM) and the soluble proteins were separated on a 6-16% BN gel and detected by immunoblot.

[2] = molecular target: the molecule itself; assay: 1% digitonin, 6-16% blue-native gel, PNPASE immunoblot (self-assembly)
Procedure: Radiolabeled RNase P RNA was incubated with isolated yeast mitochondria expressing an empty vector or the listed PNPASE constructs. […] A PORIN immunoblot confirms the co-localization of PNPASE WT and mutants in yeast mitochondria. The assembly state of WT and point mutant PNPASE was determined by solubilization with 1% digitonin and separation on a 6-16% BN gel, followed by PNPASE immunoblot. FIG. 11B (upper) show gels of WT and S484A PNPASE purified from yeast mitochondria using immunoprecipitation. FIG. 11B (lower) show gels of WT or S484A mutant PNPASE was incubated with radiolabeled RNase P RNA for 10 min at 25° C. to assess degradation activity. The asterisk marks degradation products. FIG. 11 C (left) is a gel showing the stability of RNase P RNA imported into mitochondria.
To determine whether the RNA import or stabilization activity of PNPASE was separable from its RNA processing activities, RNase P RNA import was studied when different PNPASE mutants were expressed in yeast mitochondria (FIG. 11A). The point mutants generated and tested were based on prior studies (Portnoy et al. (2008) RNA 14: 297-309). Mutants D135G and S484A lacked poly-A polymerase and RNA degradation activities in vitro. […] Of the four mutants, PNPASE S484A and R445E/R446E supported the import or stabilization of RNase P RNA, whereas mutants D135G and D544G were defective in this function (FIG. 11A). Based on the prior studies of others, it was expected that mutant D135G would fail to form a trimeric complex from prior studies (Portnoy et al. (2008) RNA 14: 297-309).

B1: human PNPASE (polynucleotide phosphorylase) expressed in yeast mitochondria (enzyme, UniProt Q8TCS8 46-783, looked up)
chain: AVAVDLGNRKLEISSGKLARFADGSAVVQSGDTAVMVTAVSKTKPSPSQFMPLVVDYRQKAAAAGRIPTNYLRREIGTSDKEILTSRIIDRSIRPLFPAGYFYDTQVLCNLLAVDGVNEPDVLAINGASVALSLSDIPWNGPVGAVRIGIIDGEYVVNPTRKEMSSSTLNLVVAGAPKSQIVMLEASAENILQQDFCHAIKVGVKYTQQIIQGIQQLVKETGVTKRTPQKLFTPSPEIVKYTHKLAMERLYAVFTDYEHDKVSRDEAVNKIRLDTEEQLKEKFPEADPYEIIESFNVVAKEVFRSIVLNEYKRCDGRDLTSLRNVSCEVDMFKTLHGSALFQRGQTQVLCTVTFDSLESGIKSDQVITAINGIKDKNFMLHYEFPPYATNEIGKVTGLNRRELGHGALAEKALYPVIPRDFPFTIRVTSEVLESNGSSSMASACGGSLALMDSGVPISSAVAGVAIGLVTKTDPEKGEIEDYRLLTDILGIEDYNGDMDFKIAGTNKGITALQADIKLPGIPIKIVMEAIQQASVAKKEILQIMNKTISKPRASRKENGPVVETVQVPLSKRAKFVGPGGYNLKKLQAETGVTISQVDEETFSVFAPTPSAMHEARDFITEICKDDQEQQLEFGAVYTATITEIRDTGVMVKLYPNMTAVLLHNTQLDQRKIKHPTALGLEVGQEIQVKYFGRDPADGRMRLSRKVLQSPATTVVRTLNDRSSIVMGEPISQSSSNSQ
notes: Homo-oligomer of about 240 kDa on blue-native gels; also called hPNP; WT PNPASE
- binding result [1]: binds

B2: human PNPASE mutant S484A (enzyme, UniProt Q8TCS8 46-783, looked up)
chain: B1 chain with S439A
notes: Point mutants are based on Portnoy et al. (2008); The numbering scheme is not further defined
- binding result [2]: binds

B3: human PNPASE mutant D544G (enzyme, UniProt Q8TCS8 46-783, looked up)
chain: B1 chain with D499G
notes: as for B2
- binding result [2]: binds

B4: human PNPASE double mutant R445E/R446E (enzyme, UniProt Q8TCS8 46-783, looked up)
chain: B1 chain with R400E, R401E
notes: as for B2
- binding result [2]: binds

B5: human PNPASE mutant D135G (enzyme, UniProt Q8TCS8 46-783, looked up)
chain: B1 chain with D90G
notes: as for B2
- binding result [1]: binds
